According to PMC3448007:

Target: NKX2.5 homeodomain (C56S) (Homo sapiens, UniProt P52952 137-197, C193S)
Test: crystal structure

Sequence of NKX2.5 homeodomain (C56S) (P52952 137-197 C193S): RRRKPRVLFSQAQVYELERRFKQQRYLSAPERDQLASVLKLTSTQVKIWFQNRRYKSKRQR

B1: ANF-242 19-bp (dsDNA)
DNA 1: TGAAGTGGGGGCCACTTGA
DNA 2: TCAAGTGGCCCCCACTTCA
binding result: binds
